# From US20230139700A1 (BIO THERA SOLUTIONS, published 2023)
# T1: mouse OX40-his (mouse, UniProt P47741 20-211)
# T1 construct: also called mOX40-his; not shown: his tag
# T1 sequence (looked up): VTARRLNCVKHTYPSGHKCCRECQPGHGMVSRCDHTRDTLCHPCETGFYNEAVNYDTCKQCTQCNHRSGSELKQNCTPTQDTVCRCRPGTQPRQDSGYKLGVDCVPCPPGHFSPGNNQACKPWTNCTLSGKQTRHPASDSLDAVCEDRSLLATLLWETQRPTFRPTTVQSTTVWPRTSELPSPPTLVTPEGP
# T2: hCD27-FC (human, UniProt P26842 20-191, limits assumed)
# T2 construct: not shown: Fc part
# T2 sequence (looked up): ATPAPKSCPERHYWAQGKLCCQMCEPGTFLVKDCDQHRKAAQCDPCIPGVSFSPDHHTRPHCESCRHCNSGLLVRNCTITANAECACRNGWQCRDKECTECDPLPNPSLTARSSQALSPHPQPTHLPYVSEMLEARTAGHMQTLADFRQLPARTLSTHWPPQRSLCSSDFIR
# T3: human OX40 on cells (human, UniProt P43489 29-277)
# T3 construct: whole, on cells; the cell is named under assay; also called hOX40; Jurkat-hOX40 cells
# T3 sequence (looked up): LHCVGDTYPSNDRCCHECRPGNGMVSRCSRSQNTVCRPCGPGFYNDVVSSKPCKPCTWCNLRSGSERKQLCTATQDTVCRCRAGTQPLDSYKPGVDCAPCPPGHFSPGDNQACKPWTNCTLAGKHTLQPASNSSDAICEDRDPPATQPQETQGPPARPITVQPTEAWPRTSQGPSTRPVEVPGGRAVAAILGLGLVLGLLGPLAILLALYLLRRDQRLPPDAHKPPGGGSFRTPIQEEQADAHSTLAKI
# T4: cynomolgus monkey OX40 (cynomolgus monkey)
# T4 chain: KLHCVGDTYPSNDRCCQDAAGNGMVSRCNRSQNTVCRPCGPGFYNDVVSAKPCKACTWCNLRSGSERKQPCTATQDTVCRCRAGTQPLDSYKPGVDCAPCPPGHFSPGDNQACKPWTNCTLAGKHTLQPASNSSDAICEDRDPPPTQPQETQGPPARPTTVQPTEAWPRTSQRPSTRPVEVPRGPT
# T5: human OX40 (coated on the plate, Example 8) (human, UniProt P43489 29-214)
# T5 sequence (looked up): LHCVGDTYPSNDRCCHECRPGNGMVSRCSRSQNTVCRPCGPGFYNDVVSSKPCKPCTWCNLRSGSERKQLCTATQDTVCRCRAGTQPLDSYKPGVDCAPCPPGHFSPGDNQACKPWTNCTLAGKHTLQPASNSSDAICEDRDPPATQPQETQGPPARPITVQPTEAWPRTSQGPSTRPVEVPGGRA
# Assays:
# mouse OX40-his = target: T1, mouse OX40-his; assay: ELISA, 10 ng antigen coated, HRP secondary antibody
# hCD27-FC = target: T2, hCD27-FC; assay: as above
# rhesus monkey OX40-his = target: T6, rhesus monkey OX40-his (rhesus monkey); assay: BLI (Fortebio), protein A sensor - antibody - OX40-his (100 nM)
# T6 construct: also called Rh-OX40; Rh-OX40-his
# human OX40 on cells [1] = target: T3, human OX40 on cells; assay: flow cytometry on Jurkat-hOX40 cells, 3-fold dilutions from 50 nM, MFI
# Description: Antibody-F23-4k and antibody-F23-32k, as well as two control antibodies 11D4 and OX40mAb24 at different concentrations were used to incubate Jurkat-hOX40 cells.
# human OX40 on cells [2] = target: T3, human OX40 on cells; assay: cell-based or functional assay
# cynomolgus monkey OX40 = target: T4, cynomolgus monkey OX40; assay: ELISA, OX40 coated at 2 µg/mL, antibody 2-fold dilutions
# Description: (§1) The binding capacities of the antibody M-KF for human and cynomolgus monkey OX40 were determined by ELISA. The test method is as follows: human or cynomolgus monkey OX40 was coated on a plate and incubated overnight at 4° C. at a concentration of 2 μg/mL, and then incubated with antibody M-KF at different concentrations for detection. The antibody M-KF was 2-fold diluted in gradient from an initial concentration of 1 μg/mL or 2 μg/mL.
# human OX40 on cells [3] = target: T3, human OX40 on cells; assay: flow cytometry (MFI) on Jurkat cells overexpressing OX40, antibody titration
# Text: (§2) Table 10 illustrates the CDRs of eight full antibodies containing these amino acid mutations, and the rest of the sequences are the same as those of antibody-F23-32K. […] The sequences of the anti-OX40 antibody (antibody M) are shown in Table 12; wherein, the expression cells used for the antibodies above (including antibody M) are CHO-S cells, and the method for preparing the antibody M-KF is as follows: the antibody M was identical to the antibody M-KF in terms of amino acid sequence and was expressed by the CHO cell line in which the fut8 gene was knocked out (the content of fucose in antibody M-KF was about 0%).
# [4] = target: T5, human OX40 (coated on the plate, …); assay: ELISA, OX40 coated at 2 µg/mL, antibody 2-fold dilutions; human OX40, not cynomolgus monkey OX40
# Description: as §1
# human OX40 on cells [5] = target: T3, human OX40 on cells; assay: flow cytometry (MFI) on Jurkat cells overexpressing OX40, antibody titration; the unit nM comes from the legend paragraph 95
# Text: as §2
# human OX40 on cells [6] = target: T3, human OX40 on cells; assay: flow cytometry on Jurkat-hOX40 cells, 100 nM antibody, secondary antibody; parental Jurkat as control
# Description: Jurkat cells overexpressing human OX40 (Jurkat-hOX40 cells) were generated by transfecting pCMV vectors with human OX40 cDNA. Jurkat-hOX40 cells (0.5×10⁶ cells) were incubated with 100 nM experimental antibody in PBS containing 0.1% BSA on ice for 40 min. The cells were then washed twice and incubated with the secondary antibody in PBS containing 0.1% BSA on ice for 25 min. The cells were washed twice and analyzed by flow cytometry on Accuri C6 system (BD Biosciences).
binder,measurement,setting,value
"OX40mAb24 (antibody, V domains shown) VH: QVQLQESGPGLVKPSQTLSLTCAVYGGSFSSGYWNWIRKHPGKGLEYIGYISYNGITYHNPSLKSRITINRDTSKNQYSLQLNSVTPEDTAVYYCARYKYDYDGGHAMDYWGQGTLVTVSS VL: DIQMTQSPSSLSASVGDRVTITCRASQDISNYLNWYQQKPGKAPKLLIYYTSKLHSGVPSRFSGSGSGTDYTLTISSLQPEDFATYYCQQGSALPWTFGQGTKVEIKR",ELISA (OD value),mouse OX40-his,0.17 OD
same,ELISA (OD value),hCD27-FC,0.2 OD
same,Kd,rhesus monkey OX40-his,3 nM
same,EC50,human OX40 on cells [1],5 nM
"Antibody M-KF (antibody, human IgG1, kappa, V domains shown, fucose content about 0% (expressed in a CHO cell line with the fut8 gene knocked out)) VH: QVQLVESGGGVVQPGESLRLSCAASGFTFSSYGMHWVRQAPGKGLEWVAVIWEDGSNQYYADSVKGRFTISRDNSKNTLYLQMNSLRAEDTAVYYCAKDNQDTSPDVGIDYWGQGTLVTVSS VL: DIQMTQSPSSLSASVGDRVTITCRASQNISPFLNWYQQKPGKAPKLLIYAAVGLQSGVPSRFSGSGSGTDFTLTISSLQPEDFATYYCQQYTDYPLTFGGGTKVEIKR","ADCC killing, fold against antibody M",human OX40 on cells [2],> 2 fold
same,"EC50 of ADCC killing, PBMC effector cells against Jurkat-hOX40 target cells (25:1)",human OX40 on cells [2],~1.89 ng/mL
same,"NFκB reporter in Jurkat-hOX40-NFκB-2 cells with Raji cells, activation peak against 11D4",human OX40 on cells [2],~2.5 fold
same,EC50,cynomolgus monkey OX40,~0.0352 ng/mL
same,EC50 (read off the curve),human OX40 on cells [3],~1 nM
same,EC50,[4],~0.034 ng/mL
same,EC50,human OX40 on cells [5],1.34 nM
"Antibody-F10 (antibody, human IgG1, kappa, V domains shown, also called antibody No. 1) VH: QVQLQESGGGLEKPGRSLRLSCAASGFTFSSYAMHWVRQAPGKGLEWVAVISYDGSNKYYADSVKGRFTISRDNSKNTLYLQMNSLRAEDTAVYYCARELGVYSGYDTPFDYWGQGTLVTVSS VL: DIQMTQSPSSLSASVGDRITITCRASRDIRDDLAWYQQKPGGAPKLLIYAASTLQSGVPSRFSGSGSGTDFTLTISSLQPEDFATYYCLQDSDYPLTFGGGTKLEIKR",binding result,human OX40 on cells [6],binds
